B1: monoclonal anti-idiotype antibody 1A7 (antibody, V domains shown)
VH: QVQVKESGPFLVPPSQSLSITCTVSGFSLTTYGVSWIRQPPGKGLEWLGAIWGDGTTNYHSALISRLSISKDNSKSQVFLKLNSLQTDDTATYYCAKLGNYDALDYWGQGTSVTVSS
VL: DVFMTQTPLSLPVSLGDQASISCRSSQSIVHSNGNTYLEWYLQKPGQSPNLLIYFVSNRFSGVPDRFSGSGSGTDFTLKISRVEAEDLGVYYCFQGSHVPWTFGGGTKLEIKR

Key:
the best Ab2 = experiment: unlabeled 14G2a competing with plate-bound 14G2a for 125I-labeled Ab2
[1] = target: monoclonal anti-GD2 antibody 14G2a; experiment: competition RIA, 5 µl Ab2 hybridoma culture supernatant, 125I-14G2a on GD2-positive M21/P6 cells
[2] = target: monoclonal anti-GD2 antibody 14G2a; experiment: competition assay, Ab2 against 14G2a binding to GD2-expressing M21/P6 cells
[3] = target: monoclonal anti-GD2 antibody 14G2a; experiment: competition RIA, Ab2 mixed with 125I-14G2a, M21/P6 cell monolayer

Row | % inhibition (the best Ab2) [%] | % inhibition of binding of radiolabeled 14G2a to M21/P6 cells [1] [%] | % inhibition of binding of 14G2a to M21/P6 cells [2] [%] | lowest amount that inhibits 14G2a binding to GD2 expressing cells [3] [ng] | Molecule
1 | > 90 |  |  |  | monoclonal anti-GD2 antibody 14G2a
2 |  | > 70 | > 75 | 25 | B1

— patent US20050287148A1
